Results published in publication PMC4787809 (Nucleic Acids Research, 2015).

Assays:
[1] = target: Cascade (Cas7-tagged prep) (Escherichia coli) (UniProt Q46901+P76632+Q46899+Q46898+Q46897); experiment: EMSA
crystal structure = target: the molecule itself; experiment: crystal structure
[2] = target: T1, Cascade (Cse2-tagged prep) (Escherichia coli, UniProt Q46901;P76632;Q46899;Q46898;Q46897 1-502;1-160;1-363;1-224;1-199); experiment: EMSA
T1 sequence 1: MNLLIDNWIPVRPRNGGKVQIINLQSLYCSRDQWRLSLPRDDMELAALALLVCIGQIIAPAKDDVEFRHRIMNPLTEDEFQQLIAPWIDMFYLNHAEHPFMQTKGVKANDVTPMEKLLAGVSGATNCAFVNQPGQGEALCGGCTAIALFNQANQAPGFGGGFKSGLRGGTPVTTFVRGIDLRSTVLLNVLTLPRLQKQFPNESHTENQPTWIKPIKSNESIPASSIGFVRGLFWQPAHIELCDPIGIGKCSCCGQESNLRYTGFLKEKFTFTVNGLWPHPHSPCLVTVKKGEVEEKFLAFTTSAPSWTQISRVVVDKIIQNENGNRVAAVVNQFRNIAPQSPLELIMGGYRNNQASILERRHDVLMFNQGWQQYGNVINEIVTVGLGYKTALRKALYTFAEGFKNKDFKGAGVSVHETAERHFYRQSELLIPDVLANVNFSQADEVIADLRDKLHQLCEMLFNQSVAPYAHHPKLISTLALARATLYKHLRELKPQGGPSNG
T1 sequence 2: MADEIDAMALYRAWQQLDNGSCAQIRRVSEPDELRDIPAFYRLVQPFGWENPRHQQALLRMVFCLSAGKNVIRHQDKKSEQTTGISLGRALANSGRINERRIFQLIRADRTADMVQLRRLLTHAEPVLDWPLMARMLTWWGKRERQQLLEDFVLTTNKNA
T1 sequence 3: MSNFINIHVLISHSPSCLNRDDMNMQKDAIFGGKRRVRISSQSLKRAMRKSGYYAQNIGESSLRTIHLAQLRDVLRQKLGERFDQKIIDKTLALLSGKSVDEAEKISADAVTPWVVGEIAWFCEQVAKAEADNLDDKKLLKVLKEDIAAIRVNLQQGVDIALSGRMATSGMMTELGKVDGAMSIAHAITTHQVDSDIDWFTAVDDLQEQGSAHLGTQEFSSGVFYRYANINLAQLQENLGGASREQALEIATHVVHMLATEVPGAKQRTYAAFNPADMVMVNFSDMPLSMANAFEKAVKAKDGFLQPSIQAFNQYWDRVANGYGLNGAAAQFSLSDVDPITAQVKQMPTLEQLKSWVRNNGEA
T1 sequence 4: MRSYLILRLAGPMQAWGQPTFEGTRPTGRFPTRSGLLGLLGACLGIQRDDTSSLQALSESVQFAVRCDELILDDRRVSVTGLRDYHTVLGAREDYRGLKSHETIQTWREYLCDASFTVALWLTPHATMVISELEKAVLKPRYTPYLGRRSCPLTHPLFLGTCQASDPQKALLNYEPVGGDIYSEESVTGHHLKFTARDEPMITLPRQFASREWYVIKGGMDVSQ
T1 sequence 5: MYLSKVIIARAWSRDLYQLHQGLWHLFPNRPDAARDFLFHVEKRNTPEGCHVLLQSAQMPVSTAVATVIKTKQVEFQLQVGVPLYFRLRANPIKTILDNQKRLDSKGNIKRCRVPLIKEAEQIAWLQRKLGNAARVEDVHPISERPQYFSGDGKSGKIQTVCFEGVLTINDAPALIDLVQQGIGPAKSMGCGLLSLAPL

[3] = target: T2, Cse1 (tail subunit of E. coli Cascade) (Escherichia coli K12, UniProt Q46901 1-502); experiment: crystal structure
T2 sequence: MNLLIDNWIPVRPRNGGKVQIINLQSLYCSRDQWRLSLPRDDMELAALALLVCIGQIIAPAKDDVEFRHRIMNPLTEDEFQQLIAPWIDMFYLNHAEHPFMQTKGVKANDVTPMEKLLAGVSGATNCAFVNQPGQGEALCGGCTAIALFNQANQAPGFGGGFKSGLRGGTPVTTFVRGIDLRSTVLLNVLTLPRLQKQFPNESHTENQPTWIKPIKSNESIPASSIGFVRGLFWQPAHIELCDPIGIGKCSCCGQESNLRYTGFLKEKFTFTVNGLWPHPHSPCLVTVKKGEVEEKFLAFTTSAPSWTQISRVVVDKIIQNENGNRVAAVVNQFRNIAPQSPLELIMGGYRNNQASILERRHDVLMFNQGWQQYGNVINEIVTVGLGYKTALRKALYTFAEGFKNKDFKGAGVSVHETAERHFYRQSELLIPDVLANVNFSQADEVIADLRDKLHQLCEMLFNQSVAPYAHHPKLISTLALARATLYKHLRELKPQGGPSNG

GCGCGGCAAGCCGAAAGCATGACGGTATTGTTCAGATCCTGGCTTGCCAACAGTGATTGCTCGGGAGTCGCT (double strand) [72 bp dsDNA target (+21), CAT PAM]
Kd [1]: 13.3 nM

B1: Cas7 as in the crystallised Cascade (natural protein)
chain: MSNFINIHVLISHSPSCLNRDDMNMQKDAIFGGKRRVRISSQSLKRAMRKSGYYAQNIGESSLRTIHLAQLRDVLRQKLGERFDQKIIDKTLALLSGKSVDEAEKISADAVTPWVVGEIAWFCEQVAKAEADNLDDKKLLKVLKEDIAAIRVNLQQGVDIALSGRMATSGMMTELGKVDGAMSIAHAITTHQVDSDIDWFTAVDDLQEQGSAHLGTQEFSSGVFYRYANINLAQLQENLGGASREQALEIATHVVHMLATEVPGAKQRTYAAFNPADMVMVNFSDMPLSMANAFEKAVKAKDGFLQPSIQAFNQYWDRVANGYGLNGAAAQFSLSDVDPITAQVKQMPTLEQLKSWVRNNGEA
stoichiometry N (crystal structure): 6

B2: 72 bp dsDNA target (+21), CAT PAM (dsDNA)
DNA 1: GCGCGGCAAGCCGAAAGCATGACGGTATTGTTCAGATCCTGGCTTGCCAACAGTGATTGCTCGGGAGTCGCT
DNA 2: AGCGACTCCCGAGCAATCACTGTTGGCAAGCCAGGATCTGAACAATACCGTCATGCTTTCGGCTTGCCGCGC
Kd [2]: 1.14 nM

B3: Cas5e (subunit of E. coli Cascade) (natural protein)
chain: MRSYLILRLAGPMQAWGQPTFEGTRPTGRFPTRSGLLGLLGACLGIQRDDTSSLQALSESVQFAVRCDELILDDRRVSVTGLRDYHTVLGAREDYRGLKSHETIQTWREYLCDASFTVALWLTPHATMVISELEKAVLKPRYTPYLGRRSCPLTHPLFLGTCQASDPQKALLNYEPVGGDIYSEESVTGHHLKFTARDEPMITLPRQFASREWYVIKGGMDVSQ
binding result [3]: binds
